Consider three molecules from paper PMC2871789, “Characterization of the Interaction and Cross-Regulation of Three Mycobacterium tuberculosis RelBE Modules”.

One series has as its target T1, RelB;RelE (Mycobacterium tuberculosis …, UniProt O50462;O50461 1-89;1-97, |).
T1 sequence 1: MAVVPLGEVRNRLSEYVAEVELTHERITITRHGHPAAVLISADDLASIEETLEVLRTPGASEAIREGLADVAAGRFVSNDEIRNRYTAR
T1 sequence 2: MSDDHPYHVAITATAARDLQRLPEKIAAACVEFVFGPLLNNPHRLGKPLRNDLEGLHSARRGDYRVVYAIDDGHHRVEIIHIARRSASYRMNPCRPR
The series can be described thus: EMSA; 1.8-15 uM titration. The settings on record: protein: recombinant;recombinant; tags: His (modified pET28a);His or GST; chain copies: 2;2; label: 5'-32P; blunt. (In EMSA bound probe runs differently from free probe, usually more slowly.)

A further series addresses RelJ;RelK (Mycobacterium tuberculosis …, UniProt P9WF25;P9WF09 1-91;1-85, |). The series can be described thus: EMSA; 1.8-15 uM titration. The settings on record: protein: recombinant;recombinant; tags: His or GST;His or GST; label: 5'-32P; blunt.
The target in the next series is T2, RelJ (Mycobacterium tuberculosis H37Rv, UniProt P9WF25 1-91).
T2 sequence: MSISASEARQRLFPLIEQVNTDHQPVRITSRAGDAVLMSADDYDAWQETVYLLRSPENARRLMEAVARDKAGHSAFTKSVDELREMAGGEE
The series can be described thus: EMSA; 7.5 uM RelJ alone. The settings on record: protein: recombinant; tags: His or GST; chain copies: 2; label: 5'-32P; blunt.

The target of another series is T3, RelF;RelG (Mycobacterium tuberculosis …, UniProt O33347;O33348 1-93;1-87, |).
T3 sequence 1: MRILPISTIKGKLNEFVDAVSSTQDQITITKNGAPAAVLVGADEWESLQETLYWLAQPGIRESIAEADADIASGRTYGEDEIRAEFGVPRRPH
T3 sequence 2: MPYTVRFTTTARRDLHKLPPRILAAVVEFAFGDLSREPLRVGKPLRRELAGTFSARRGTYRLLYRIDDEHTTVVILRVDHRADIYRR
The series is described as follows: EMSA. The settings on record: protein: recombinant;recombinant; tags: His or GST;His or GST; label: 5'-32P; blunt.

RelJ;RelK, sequence (P9WF09 whole entry, one chain of several): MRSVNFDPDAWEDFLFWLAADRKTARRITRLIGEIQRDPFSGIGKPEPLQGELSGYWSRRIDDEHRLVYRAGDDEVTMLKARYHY

B1: 1247p7 (dsDNA)
DNA 1: GGCGTTCGGCTCGGTAAGCCGATGCTCGGCG
DNA 2: CGCCGAGCATCGGCTTACCGAGCCGAACGCC
With B1, the binding result in the series with RelB;RelE is “binds”.

B2: 3357p7 (dsDNA)
DNA 1: CCACCGTACGGACAACTTGTACCATTGTGGTACAGATTATCCGTACATCTT
DNA 2: AAGATGTACGGATAATCTGTACCACAATGGTACAAGTTGTCCGTACGGTGG
For the molecule B2, the binding result in the series with RelJ;RelK and in the series with RelJ was “binds” each time.

B3: 2865p7 (dsDNA)
DNA 1: AAACCTGAGACGCCGCGCACAAAGTGCGAAACC
DNA 2: GGTTTCGCACTTTGTGCGCGGCGTCTCAGGTTT
Consider B3, for which the binding result in the series with RelF;RelG was “binds”.
